Laboratory results reported in patent US20250289888A1.

Legend:
Assay in all cases: cell-based or functional assay
[1] = target: human FcγRIIa, H variant (human) (UniProt P12318)
[2] = target: human FcγRIIa, R variant (human) (UniProt P12318)
human FcγRIIb (human) = human FcγRIIb (human) (UniProt P31994)
mouse FcγRIII (mouse) = mouse FcγRIII (mouse) (UniProt P08508)
mouse FcγRIV (mouse) = target: mouse FcγRIV (mouse)
Chain of mouse FcγRIV (mouse) (A0A0B4J1G0 21-203): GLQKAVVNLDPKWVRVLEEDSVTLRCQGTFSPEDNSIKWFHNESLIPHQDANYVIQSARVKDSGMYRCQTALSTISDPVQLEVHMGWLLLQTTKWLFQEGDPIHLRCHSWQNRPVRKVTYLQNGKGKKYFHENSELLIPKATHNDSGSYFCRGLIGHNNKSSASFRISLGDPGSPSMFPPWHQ

Chain of human FcγRIIa, R variant (human) (P12318 other isoform, or with tags, fused parts or gaps mutant limits assumed): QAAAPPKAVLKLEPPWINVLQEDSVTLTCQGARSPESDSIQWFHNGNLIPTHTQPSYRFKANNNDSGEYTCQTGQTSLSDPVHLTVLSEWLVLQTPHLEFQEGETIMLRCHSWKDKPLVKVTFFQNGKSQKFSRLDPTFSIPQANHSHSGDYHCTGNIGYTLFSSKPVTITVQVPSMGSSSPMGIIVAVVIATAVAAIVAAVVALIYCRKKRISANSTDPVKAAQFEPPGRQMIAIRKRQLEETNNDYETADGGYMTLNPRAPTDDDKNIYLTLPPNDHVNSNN
Chain of human FcγRIIb (human) (P31994 43-310): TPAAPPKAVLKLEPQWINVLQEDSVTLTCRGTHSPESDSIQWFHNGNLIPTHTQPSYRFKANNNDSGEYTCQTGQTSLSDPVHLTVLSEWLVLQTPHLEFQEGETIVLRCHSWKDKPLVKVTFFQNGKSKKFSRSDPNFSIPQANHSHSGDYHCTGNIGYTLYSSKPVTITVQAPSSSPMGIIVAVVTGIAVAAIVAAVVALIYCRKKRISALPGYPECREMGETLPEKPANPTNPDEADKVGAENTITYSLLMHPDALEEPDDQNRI
Chain of human FcγRIIa, H variant (human) (P12318 34-317, change not shown): as the sequence (P12318 other isoform, or with tags, fused parts or gaps mutant limits assumed) above, with R134H counted along it
Chain of mouse FcγRIII (mouse) (P08508 31-261): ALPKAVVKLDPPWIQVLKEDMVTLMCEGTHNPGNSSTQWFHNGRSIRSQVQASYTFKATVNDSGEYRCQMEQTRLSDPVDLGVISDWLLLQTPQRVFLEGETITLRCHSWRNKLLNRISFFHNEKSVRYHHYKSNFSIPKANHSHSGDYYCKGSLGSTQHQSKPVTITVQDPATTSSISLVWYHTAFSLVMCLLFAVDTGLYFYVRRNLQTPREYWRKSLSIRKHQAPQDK

EC50 [1]: 0.05 µg/mL
Maximum luminescence (RLU) [1]: 973 RLU
EC50 [2]: 0.21 µg/mL
Maximum luminescence (RLU) [2]: 2640 RLU
EC50 (human FcγRIIb (human)): 0.17 µg/mL
Maximum luminescence (RLU) (human FcγRIIb (human)): 5800 RLU
Maximum luminescence (RLU) (mouse FcγRIII (mouse)): 17500 RLU
EC50 (mouse FcγRIV (mouse)): 2.21 µg/mL
Maximum luminescence (RLU) (mouse FcγRIV (mouse)): 990 RLU
Substance: Ipilimumab (antibody)
